Among the data in PMC8015186 are β-galactosidase signal over background (times above the background level) values, retold here.

Test [1] deals with TraWF in the BACTH-TM vectors (E. coli (F-plasmid)) (UniProt P18472). The test can be described thus: two-hybrid.
The target in test [2] is TraBN with T18 or T25 at its N-terminus (BACTH) (Neisseria gonorrhoeae MS11) (UniProt Q5EPB9). In words: two-hybrid.

On to “TraVF in the BACTH-TM vectors (from UniProt P41069 19-171) (natural protein)”, for which the β-galactosidase signal over background (times above the background level) in test [1] came out at 8.

Take “TrbCN in the BACTH-TM vectors (natural protein)”: the β-galactosidase signal over background (times above the background level) in test [2] was found to be 4.
